Source: the DeepSol protein solubility set

Assay: soluble on expression in E. coli; label from the status in PepcDB or PDB records

Sequence | soluble on expression in E. coli
MEGVMGQVEKRPISTIVFIVAMQKEAQPLINRLRLVEEVNTPFPKEVTWIMFKGMYKDLNINIVCPGKDSTLGVESVGTVPASLVTYASILAIQPDLIINAGTAGGFKAKGACISDVYVVSTVAFHDRRIPVPVLDIYGVGMRNTFPTPNLIKELNLKVGRLSTGDSMDMSPHDEESITANDATVKDMEGAAVAYVADIFKVPTILIKGVTDIVDGNRPTSEEFLENLAAVTAKLDESLTKVIDFISGKCLSDL | soluble
MKCYFRSFDAGIGDCNIIRLVKNEGEQYVIMVDCGSYTEPLKEYLQNALHNHIDLLIATHIDGDHIQGIATMLKKHEGLTVGEIWYNCYKRTKGAEYIELNDQQKAILKQIQKALPVEFDAINYREITATQGKTLAQTILCNEKFKGVWKTEYITSNTEDFDIPGGFGKIVFLAPRQEALKAIENKFKEAFDKYFMQAWNESIENVEELQELLIRLVDAYQDKFGGKQISAKNKPVYNVAFVRKQAKEEGADDSDTNCSSIAFMLECGEHRIAMLGDAFADIIEETIDNKYKDQAKPMECDAIKVSHHGSNGNSSKTLLDRINSHIYFIPGGKGEKYPAWGTFGRIAEKHKDDQAKLIVFSRQCTITEKMNGLNEEVKRELGVETIITEQEYELFEW | not soluble
MSTSDTPRTYHHGNLPAVLRQAAWDIVGEAGVRSVSLRECARRANVSHAAPAHHFGSLENLLAEVVADGYERMVDAVQAAQRELDDPVLGCGMGYVNFARQYPQHFRLMFGMTGVNRALPRLVNSGEATLQLLRQSLRTAWIAKNGVEPEPALLEQRTLLAWSTAHGYASLAIDRTTVEPFVVSAESILQPMAVFLLTP | not soluble
VTNWWSGDKRYQRFIERLLSVFEGRVLELPAESHGNVAVMAFQSSPKEQNIDKLKKRADKLSNAYGLDFHRMLAGLKASNPNNGKHFHL | not soluble
MAHHHHHHMKNSQMERKKYSVHNLVKLINERNKQNVRNKQPAVGADGTTSINAAGDGLDGETHSNFFHVEKNGQVGRKDKAGFPAEDGEIGGEYDVRDGSVDEEDECDGEAVRDGEAAPDEERADCTDGADTTLPPGGGGEVKLFMFDYNECQNQKCSCKKLYRFKKIKKAPINKKFKGIVLTPFCEKFFSINDKATVENFGLSVIDCSWKSLDLLKKAKFANQRKLPYIIAVNSINYGKPYKLSCLESLAFCLYVCGYNKQCTDILNIYKWSSSFVNLNGELLDMYKLCNTHEEVKSVEDEFIHNSLSEKEKRKEIDQYRVIYEDGYL | soluble
GSEDLKKLEEEFDVRLGVYAIDTGADKEISYRENERFAYTSTFKPLAVGAVLQTKSDEELEETITYSEEDLVTYSPITEQHVDEGMTLVEIADAAIRYSDNTAGNLLLEAMGGPDELETILRDIGDETIEMDRYETELNEAKPGDIRDTSTAKAMATTLQQYVLEDVLDADRREVLTNMLINNTTGDALIRAGVPDGWTVGDKTGAGGYGTRNDIGIIWPEGDEEPIVIAIMSSRDEEDADYDDKLIEKATEIVLQELRN | soluble
MSLRKGSMRITPLGGLGEIGRNMNVIEYNGHLLLIDCGVLFPEEEQPGVDLILPDFSYIKNRLDKVDALVLTHGHEDHIGGVPYLLKLRPDIPLIGSKLTLAFVDAKCKEHHQNPTKVEVAGREKLKVGPFDLEFVNVTHSIPDALAVYVKTPAGSLIDTGDIKLDQLPLDHRITDLVEFGKIGEKGVDLLMMDSTNAEVPGFVKPETSIGPALDQAFAQATRKIIVASFSSHVHRVQQVVDAAHKYGRKVVFVGRSMVRNMSIAADLGYLHIPEGTVVDLKQANDIQDDKLVFMCTGSQGEPMAALGRIADGNHRDIHINEFDTVILASSLIPGNEHGVYKVINKLVQLGAKVVNRDNAAVHVSGHCNEGELLYMYNIVKPKCAMPIHGENRHLVANGLIAVKTGVDPQNVVLAEDGDVVDLYHGRAAVVGSVPCGYVYVDGDSVGELTDDELEKRRILGTEGFVSAFVVVDTDNHEVVTGPKIYLNAVAEDESEFDKVRHQIVEQLNDQMMQGTRDTYKLQQTMRRTLGSWVARQLHRKPMIVPVVADIAQDVETVETKEGHHHHHH | soluble
MAHHHHHHMSTKLEQENCKLLENIEVISTWSSNNDSNMESFVEPSELDIKDDNEKCLNILNDNLIYDFEKEEDEKKKKNKKNEKSSSNIDLEYDTMKKYIKCIIHNKEKEEFYSFMKYICDSDLFLTFVQLFLDLIKNKDSNLNPHDYLINFFQINIEEENNTNSIKRKNLIKENNFYKKQNEELKKQINIIQVEIMDMKKKNMCNYITNFFFKDNKQEYDASKIFQKVNLYYENIRIEPPFYFTKDTFNLFINYLSDNKRNYIYNIITDMYNIYETNHTLFITKFYKKLTNFIEFYRSFDK | not soluble
MGSSHHHHHHSSGRENLYFQGMTLKAGIVGIGMIGSDHLRRLANTVSGVEVVAVCDIVAGRAQAALDKYAIEAKDYNDYHDLINDKDVEVVIITASNEAHADVAVAALNANKYVFCEKPLAVTAADCQRVIEAEQKNGKRMVQIGFMRRYDKGYVQLKNIIDSGEIGQPLMVHGRHYNASTVPEYKTPQAIYETLIHEIDVMHWLLNEDYKTVKVYFPRQSSLVTTLRDPQLVVMETTSGINIVVEVFVNCQYGYDIHCDVTGEKGMAELPTVASAAVRKAAKYSTDILVDWKQRFIDAYDIEFQDFFDRLNAGLPPAGPTSWDGYLAAVTADACVKSQETGNTEIVELPSKPDFYK | soluble
MGPDTTSERVSEDLMQAVTCLKRVMVGMKSNGTDYVQEQTPSNSTTVICTLVKITGALERCIESNKAMNDVLNGKMKCTTCGATSVGLLSDCHDSATSTTTTVSHRSSEEPPRRKPSAAGGDHDDEELECSSIESRSIRSVSSSVHTSAEDDETNQTMMVPTDVADVINAIVAGTNGSSNSNTTSSSKSPQEEEEEHDLVMKSILSTTTSTSNTKLELSEKLENPLQDTALLDQFLQASLLGQTPTVTPASEENEEDKEQNAVLTSFLQILFANQQAGNAILDAGSSENDGSTSSSQPSPPADPTASLDSLAMFESLLAESMNGNVLDANTSSADQKAAARKRKSTPMKVPKSENGAGYICPMDGCNKVFKEKGSVHRHFVTHIGMRFNCDKCKASYTQKHALMLHQKIHANPDAYQCRGCGTNYTTQNGLRLHRQRNPACMEVSNALEFNTSLNTSISEALSGPLSKNSSPTKQMVSAP | not soluble
MSTIKIVPLGGVRENGKNMYVAEVEDEIFVLDCGLQYPENELLGIDVVIPDFTYLEENSERIAGVFLTHGHADAIGALPYLLSKIQVPVFGTELTIELAKLSVNSHAETKKFKDFHVIDPHTEIDFGQATVSFFKTTHTIPDSIGVSIKTKEGNIVYTGDFKFDQSAIEMYQTDYGRLAEIGKEGVLALLSDSSNAENPAQVASEAQIADEVFDTIRYWEGRIIVACVASNLQRVQQVLNAADRSGRKVVLTGQDFERIIRTAMKLEKLQLPSEDLLVKPKEMKKYAPEQLLILETGRMGEPIKSLQKMANNTHGVVRIEEGDLVYITTTPTTAMETTVAKTEDIVYRAGATVKQISDNLRVSGHANPNDLQLMLNLMKPKYFIPVQGEYRQLAAHADLAHEIGMPYKDIFITGRGDILEYTKGRMSVAGSTTAENIMIDGIGVGDIGNIVLRDRRILSEDGIFVAVVTINRREKRIVSPAKITSRGFVYVKTSKDLMKESSNIVTEIVEKHLESDDFEWSKLKQEIRENLSRYLFEQTKRRPVILPVIMEATQRKRPKNNA | not soluble
MGSDKIHHHHHHMNFLAHLHLADNSKTDLAANLAGDFAKGNIADHPKALQQGIWLHRQIDSLTDSHELTKELKAAFPKTLQRAAPILIDLAFDHMLAKYWEEYHHLSLPDFAQQAYLALSSAEQLPVNLSDLIIRMRQENWLIAYESREGLNQTIKAVSKRVSKPEIFDGAIDTVKRMDTEIEIAFRTFYPQLMAYSRIWTRQTPPEFL | not soluble
MAHHHHHHGAYDVARVRGLHPSLGDGWVHFDAPAGMLIPDSVATTVSTAFRRSGASTVGAHPSARRSAAVLDAAREAVADLVNADPGGVVLGADRAVLLSLLAEASSSRAGLGYEVIVSRLDDEANIAPWLRAAHRYGAKVKWAEVDIETGELPTWQWESLISKSTRLVAVNSASGTLGGVTDLRAMTKLVHDVGALVVVDHSAAAPYRLLDIRETDADVVTVNAHAWGGPPIGAMVFRDPSVMNSFGSVSTNPYATGPARLEIGVHQFGLLAGVVASIEYLAALDESARGSRRERLAVSMQSADAYLNRVFDYLMVSLRSLPLVMLIGRPEAQIPVVSFAVHKVPADRVVQRLADNGILAIANTGSRVLDVLGVNDVGGAVTVGLAHYSTMAEVDQLVRALASLG | soluble
